First the molecules themselves.
B2: humanized scFv 16-22-H05-sc02 (STR, structural graft) (scFv)
scFv: MDIQMTQSPSSLSASVGDRVTIKCQASQSIFSGLAWYQQKPGKAPKLLIYGASKLASGVPSRFSGSGSGTEFTLTISGLQPADFATYYCQSYYYSSSSSDGSYAFGGGTKLTVLGGGGGSGGGGSGGGGSGGGGSEVQLVESGGGLVQPGGSLRLSCKASGIDFNNYGIGWVRQAPGKGLEWITYIYPGFAITNFANSVKGRFTISSDNSKNTVYLQMNSLRAEDTAVYYCARDPVYATSSGYFDLWGQGTLVTVSS
notes: also called 16-22-H5-sc02; 16-22-H04-sc02 [sic]
B3: humanized scFv 16-22-H05-sc04 (CDR/STR) (scFv)
scFv: MDIQMTQSPSSLSASVGDRVTITCQASQSIFSGLAWYQQKPGKAPKLLIYGASKLASGVPSRFSGSGSGTEFTLTISGLQPADFATYYCQSYYYSSSSSDGSYAFGGGTKLTVLGGGGGSGGGGSGGGGSGGGGSEVQLVESGGGLVQPGGSLRLSCKASGIDFNNYGIGWVRQAPGKGLEWITYIYPGFAITNFANSVKGRFTISSDNSKNTVYLQMNSLRAEDTAVYYCARDPVYATSSGYFDLWGQGTLVTVSS
notes: also called 16-22-05-sc04

Test [1] addresses B3. Briefly: competition ELISA: unlabeled TNFβ against biotinylated TNFα on coated scFv. On the procedure: (§1) For this purpose, the scFvs were coated on a 96-well Maxisorp ELISA plate at a concentration of 1 pg/ml. […] To control precision of the response, the dose-response curves were analyzed in duplicate.
Test [2] concerns the target B2. The test is described as above. On the procedure: as §1
Test [3] has as its target T1, recombinant human TNFα (human, UniProt P01375 77-233).
T1 construct: also called tumor necrosis factor alpha; TNFαtrimer
Briefly: inhibition ELISA, blocking of biotinylated TNFα binding to coated TNFRI-Fc. The text has this:
For the first inhibition ELISA, the extracellular domain of TNFRI fused to the Fc region of human IgG (R&D Systems, Cat. No. 372-RI) was coated on a 96-well Maxisorp ELISA at a concentration of 0.5 pg/ml. […] All subsequent steps were identical for both assays.

In test [4] the target is T1, recombinant human TNFα. As to the kind of experiment: cell-based or functional assay.

T1 sequence (P01375 77-233 limits assumed): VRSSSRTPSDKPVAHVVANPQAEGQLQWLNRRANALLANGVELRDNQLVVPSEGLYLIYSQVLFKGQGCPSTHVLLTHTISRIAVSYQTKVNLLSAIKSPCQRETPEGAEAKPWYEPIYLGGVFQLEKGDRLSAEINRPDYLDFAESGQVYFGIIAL

B1: recombinant human TNFβ (ligand, UniProt P01374 35-205, looked up)
chain: LPGVGLTPSAAQTARQHPKMHLAHSTLKPAAHLIGDPSKQNSLLWRANTDRAFLQDGFSLSNNSLLVPTSGIYFVYSQVVFSGKAYSPKATSSPLYLAHEVQLFSSQYPFHVPLLSSQKMVYPGLQEPWLHSMYHGAAFQLTQGDQLSTHTDGIPHLVLSPSTVFFGAFAL
For the molecule B1, the IC50 in test [1] and in test [2] was more than 1.25 ng/mL throughout.

For B2, in the test with recombinant human TNFα [3], the “rel. IC50 (IC50 Infliximab/IC50 scFv, ng/mL)” value is 3.5 ratio and the “rel. IC90 (IC90 Infliximab/IC90 scFv, ng/mL)” value came to 2.4 ratio. Also, in the test with recombinant human TNFα [4], the “L929 assay, rel. IC50” value was 13.1 ratio IC50 Infliximab (ng/ml)/IC50 scFv (ng/mL) and the “L929 assay, rel. IC90” value was 12.6 ratio IC90 Infliximab (ng/ml)/IC90 scFv (ng/mL).

Consider B3, for which, in the test with recombinant human TNFα [3], the “rel. IC50 (IC50 Infliximab/IC50 scFv, ng/mL)” value is 2.8 ratio and the “rel. IC90 (IC90 Infliximab/IC90 scFv, ng/mL)” value came out at 2.1 ratio. Besides, in the test with recombinant human TNFα [4], the “L929 assay, rel. IC50” value was 14.6 ratio IC50 Infliximab (ng/ml)/IC50 scFv (ng/mL) and the “L929 assay, rel. IC90” value is 13.1 ratio IC90 Infliximab (ng/ml)/IC90 scFv (ng/mL).

The record behind these values is US20230279091A1 (published 2023).
